B1: TAT-STEP peptide: constitutively active STEP-derived peptide fused to HIV-1 TAT protein transduction domain, myc-tagged; exact mutation set not stated here (protein)
chain: MALYGRKKRRQRRRGEEKVEDDFLDLDAVPETPVFDCVMDIKPETDPASLTVKSMGLQERRGANVSLTLDMCEPGCNEEGFGYLVEPREESAHEYLLSASRVLRAEELHEKALDPFLLQAE
modifications: Mouse
B2: TAT-STEP peptide of SEQ ID. No. 11: cell-permeable TAT-STEP peptide given intravenously in MCAO; figure legends call the treatment TAT-STEP-myc (protein)
chain: B1 chain
modifications: myc tag; Mouse

Experiments:
cultured neurons [1] = experiment: cell culture model of glutamate toxicity (Hoechst DNA staining); type: cell-based; conditions: transduction prior to or immediately after glutamate (100 μM, 30 min); staining 24 hr later
Source text: Using a cell culture model of glutamate toxicity we first investigated the functional significance of STEP's activation following excitotoxic NMDA receptor stimulation. […] As described in Poddar et al., 2010, using a substrate-trapping mutant we established that p38 MAPK is a substrate of STEP and the KIM domain of STEP is involved in STEP-p38 interaction. NR2B-NMDAR mediated activation of STEP promotes cell survival by down-regulating p38 MAPK signaling pathway. However sustained NMDAR stimulation results in degradation of active STEP leading to secondary activation of p38 MAPK that triggers cell death pathways. Based on these findings we generated a constitutively active form of a STEP peptide that can bind irreversibly to p38 MAPK. It was rendered cell permeable by fusion to the protein transduction domain of the human immunodeficiency virus-type I, TAT.

cultured neurons [2] = experiment: oxygen-glucose deprivation (OGD), in vitro model of cerebral ischemia; type: cell-based; conditions: pre-incubation with peptide; OGD 2 hr; viability tested 24 hr later
Experimental: In subsequent experiments we used oxygen-glucose deprivation (OGD) as an in vitro model of cerebral ischemia to evaluate the role of TAT-STEP peptide in neuroprotection following an ischemic insult. Cultured neurons were submerged in glucose free buffer in a hypoxic chamber (oxygen-glucose deprivation or OGD) for 2 hr in the presence or absence of the peptide and cell viability was tested by Hoechsy DNA staining 24 hr later.

striatum = experiment: animal model of glutamate toxicity, stereotactic injection into the striatum; type: in vivo; conditions: injected stereotactically into the striatum prior to glutamate
male Wistar rats = experiment: middle cerebral artery occlusion (MCAO) acute ischemic stroke model; type: in vivo, rat; conditions: intravenous, reperfusion 24 hr, vs saline, p<0.01
Experimental: FIG. 13 is a quantitative analysis of the infarct volume. Infarct volumes are expressed as a percentage of the contralateral (control) hemisphere and the data are mean +/− SEM (p<0.01).
FIG. 15 is a quantitative analysis of the infarct volume. Infarct volumes are expressed as a percentage of the contralateral (control) hemisphere and the data are mean +/− SEM (p<0.01).
Using an animal model of cerebral ischemia (middle cerebral artery occlusion for 90 min to generate embolic stroke followed by reperfusion for 24 hr), we evaluated whether degradation of active STEP contributes to neuronal cell death and subsequent brain damage and if the modified STEP peptide can mitigate ischemic brain damage. At first we examined the temporal profile of STEP's activation and subsequent degradation following cerebral ischemia and reperfusion and also evaluated its correlation with p38 MAPK activation. The findings show a rapid but transient increase in phosphorylation of p38 MAPK within 15 min of ischemic insult. This was followed by a time-dependent decrease in p38 phosphorylation from 30 min, which returned to basal levels by 90 min. […] As a consequence, active STEP limits the duration of activation of p38 MAPK. Progressive down regulation of active STEP through degradation is evident from ˜6 hours after reperfusion resulting in secondary activation of p38 MAPK. […]

Molecule | neuronal cell death as assessed by Hoechst DNA staining (cultured neurons [1]) | OGD-induced cell death (Hoechst DNA staining) (cultured neurons [2]) | glutamate-induced excitotoxic cell death in vivo (striatum) | protection against ischemic brain injury (infarct volume, TTC staining) (male Wistar rats; 1.5 hr after onset of stroke (MCAO 90 min)) | protection against ischemic brain injury (infarct volume, TTC staining) (male Wistar rats; immediately before MCAO 90 min)
B1 | blocked neuronal cell death | significant reduction in OGD-induced cell death | could attenuate glutamate-induced excitotoxic cell death in vivo |  | 
B2 |  |  |  | significant protection against ischemic brain injury | significant protection against ischemic brain injury

From patent US10570381B2, “STEP-derived peptide for brain injury treatment” (STC.UNM, priority 2010, dated 2020)
